Source: patent US20210253711A1 (CULLINAN MICA, published 2021)

Assays:
[1] = biological target: T1, Recombinant MICA*02 protein; assay: ELISA, coated MICA*02, OD 450 nm
T1 construct: Coated on ELISA plates
T1 sequence (Q29983 whole entry, species assumed, looked up): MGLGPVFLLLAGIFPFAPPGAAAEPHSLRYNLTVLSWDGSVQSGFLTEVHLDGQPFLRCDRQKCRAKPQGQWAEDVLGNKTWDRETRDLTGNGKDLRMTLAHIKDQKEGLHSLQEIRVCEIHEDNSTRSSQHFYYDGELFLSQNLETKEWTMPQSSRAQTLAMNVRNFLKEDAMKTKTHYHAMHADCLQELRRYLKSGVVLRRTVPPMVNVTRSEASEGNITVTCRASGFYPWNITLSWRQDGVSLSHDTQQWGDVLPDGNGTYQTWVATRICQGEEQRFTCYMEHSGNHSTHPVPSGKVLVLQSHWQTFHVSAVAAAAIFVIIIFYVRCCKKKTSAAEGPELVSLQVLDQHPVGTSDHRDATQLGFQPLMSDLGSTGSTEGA
Procedure: (§1) Recombinant MICA*01, MICA*02, MICA*04, MICA*08, MICA*09, and MICB proteins were diluted to 1 μg/ml in 50 mM sodium carbonate buffer, pH 9.6, and coated onto high binding 96-well microplates (Corning #9018), 100 ng in 100 ul per well. The following morning, coated ELISA plates were washed three times with TBS-Tween-20, pH 7.4 and then blocked in SuperBlock T20 Blocking Buffer (Pierce #37536). After blocking, ELISA plates were washed once with TBS-T and incubated with serially diluted anti-MICA antibody (0-1 μg/ml) for approximately two hours at room temperature. Following the incubation, ELISA plates were washed three times with TBS-T and then incubated with Goat anti-Mouse IgG (H+L)-HRP conjugate (ThermoFisher Scientific #626520) for 45 minutes at room temperature with shaking (˜400 rpm). After the incubation, ELISA plates were washed three times with TBS-T and incubated with Super Sensitive Liquid Substrate TMB (Sigma #T4444), 100 ul per well, until color development was sufficient. The reaction was stopped with 1N sulfuric acid, 100 ul per well. Optical density (OD) values were measured at 450 nm using a microplate reader.

[2] = biological target: T2, Recombinant MICA*09 protein; assay: ELISA, coated MICA*09, OD 450 nm
T2 construct: Coated on ELISA plates
T2 sequence (Q29983 whole entry, species assumed, looked up): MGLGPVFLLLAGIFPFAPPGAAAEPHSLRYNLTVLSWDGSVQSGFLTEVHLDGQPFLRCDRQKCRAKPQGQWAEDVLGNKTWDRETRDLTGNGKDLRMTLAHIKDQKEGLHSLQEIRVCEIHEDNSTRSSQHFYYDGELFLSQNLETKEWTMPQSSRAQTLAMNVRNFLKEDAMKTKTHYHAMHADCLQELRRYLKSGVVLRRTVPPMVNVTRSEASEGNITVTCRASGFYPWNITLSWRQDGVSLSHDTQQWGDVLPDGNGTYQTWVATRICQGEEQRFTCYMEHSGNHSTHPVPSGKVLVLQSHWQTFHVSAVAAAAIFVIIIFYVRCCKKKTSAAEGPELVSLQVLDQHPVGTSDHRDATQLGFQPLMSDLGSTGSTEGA
Procedure: as §1

Recombinant MICB protein = biological target: T3, Recombinant MICB protein (UniProt Q29980 23-298, limits assumed); assay: ELISA, coated MICB, OD 450 nm
T3 construct: Coated on ELISA plates
T3 sequence (looked up): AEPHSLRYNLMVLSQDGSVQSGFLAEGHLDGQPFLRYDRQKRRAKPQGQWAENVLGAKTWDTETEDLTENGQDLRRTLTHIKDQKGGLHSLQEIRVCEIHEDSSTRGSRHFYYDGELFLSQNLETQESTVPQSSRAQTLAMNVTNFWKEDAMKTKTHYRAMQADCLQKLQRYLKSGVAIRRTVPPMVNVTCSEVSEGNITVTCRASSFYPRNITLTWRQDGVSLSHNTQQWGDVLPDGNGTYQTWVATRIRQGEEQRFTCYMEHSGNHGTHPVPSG
Procedure: as §1

[3] = biological target: T4, Recombinant MICA*01 protein (Homo sapiens (Human), UniProt Q29983 24-307); assay: ELISA, coated MICA*01, OD 450 nm
T4 construct: Coated on ELISA plates
T4 sequence: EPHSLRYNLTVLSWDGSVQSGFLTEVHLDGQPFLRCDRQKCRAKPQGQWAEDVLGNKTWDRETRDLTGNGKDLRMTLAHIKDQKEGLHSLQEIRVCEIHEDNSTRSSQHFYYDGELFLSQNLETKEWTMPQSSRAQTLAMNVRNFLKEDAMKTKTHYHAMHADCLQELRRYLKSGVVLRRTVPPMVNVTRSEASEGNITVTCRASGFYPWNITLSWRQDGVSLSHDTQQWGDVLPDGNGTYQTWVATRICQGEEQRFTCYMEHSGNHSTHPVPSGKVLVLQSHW
Procedure: as §1

[4] = biological target: T5, Recombinant MICA*08 protein; assay: ELISA, coated MICA*08, OD 450 nm
T5 construct: Coated on ELISA plates
T5 sequence (Q29983 whole entry, looked up): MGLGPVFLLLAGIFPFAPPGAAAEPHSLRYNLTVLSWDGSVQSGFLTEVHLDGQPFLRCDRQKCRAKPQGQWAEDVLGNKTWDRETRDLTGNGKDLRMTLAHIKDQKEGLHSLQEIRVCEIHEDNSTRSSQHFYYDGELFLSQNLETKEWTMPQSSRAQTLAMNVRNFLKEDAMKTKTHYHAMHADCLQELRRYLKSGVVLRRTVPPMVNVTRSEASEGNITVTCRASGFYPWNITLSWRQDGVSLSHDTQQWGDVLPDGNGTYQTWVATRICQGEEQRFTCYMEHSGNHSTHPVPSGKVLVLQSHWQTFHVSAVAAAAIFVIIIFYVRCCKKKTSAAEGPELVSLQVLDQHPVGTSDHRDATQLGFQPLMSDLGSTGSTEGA
Procedure: as §1

[5] = biological target: T6, Recombinant MICA*04 protein; assay: ELISA, coated MICA*04, OD 450 nm
T6 construct: Coated on ELISA plates
T6 sequence (Q29983 whole entry, looked up): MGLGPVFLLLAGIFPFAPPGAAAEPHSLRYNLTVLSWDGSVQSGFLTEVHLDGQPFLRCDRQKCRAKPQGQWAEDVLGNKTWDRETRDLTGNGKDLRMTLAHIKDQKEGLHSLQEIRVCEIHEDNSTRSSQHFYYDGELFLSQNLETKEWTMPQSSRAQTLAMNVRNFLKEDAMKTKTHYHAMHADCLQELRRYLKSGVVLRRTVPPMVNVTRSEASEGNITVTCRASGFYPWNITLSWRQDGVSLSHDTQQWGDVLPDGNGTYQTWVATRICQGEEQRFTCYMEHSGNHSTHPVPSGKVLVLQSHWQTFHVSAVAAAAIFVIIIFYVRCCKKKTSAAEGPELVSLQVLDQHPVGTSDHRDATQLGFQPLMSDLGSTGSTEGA
Procedure: as §1

Measured: EC50 (read off the curve)

B1: 16F10.C12 (antibody, V domains shown)
VH: EVQLQESGPGLVAPSQSLSITCTVSGFSLTAFGVNWVRQPPGKGLEWLGMIWGDGNTDYNSTLRSRLSISKDNSKSQVFLKLNSLQTDDTARYFCARETYYGNYAGLGYWGQGTLVTVSA
VL: QIVLTQSPAIMSASIGERVTMTCTASSSVSSNYLHWYQQKPRSSPKLWIYTTSNLASGVPTRFSGSGSGTSYSLTISSMEAEDAATYYCHQFHRSPFTFGSGTKLEIK
notes: the mAb was captured on anti-mouse IgG Fc biosensors and detected with goat anti-mouse IgG, so it is a mouse IgG; also called anti-MICA/B mAb; anti-MICA antibody
~0.03 µg/mL: [1] | [2] | Recombinant MICB protein | [3]

B2: 3F9.E4 (antibody, V domains shown)
VH: EVQLQESGEGLVKPGGSLKLSCAASGFTFSNYAMSWVRQTPEKRLEWVAYISPGGDYIYYADTVKGRFTISRDNARNTLYLQMSSLKSEDTAMYYCTTDRRHYGSYAMDYWGQGISVTVSS
VL: DIVMTQAAPSVPVTPGESVSISCRSSKSLLHSNGNTYLYWFLQRPGQSPQLLIYRMSNLASGVPDRFSGSGSGTAFTLRISRVEAEDVGVYYCMQHLEYPFTFGSGTKLEIK
notes: as for B1
~0.03 µg/mL: all assays above
